In the nanobody polyreactivity screen of Harvey et al. (2022):

assay: yeast display, Sf9 membrane polyspecificity reagent, FACS + sequencing; frameworks hold sequencing errors
Summary of the method: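 After 36–48 hours of galactose induction, yeast (Saccharomyces cerevisiae BJ5465) displaying a synthetic nanobody library were stained at 4 °C for 1 hour with 10% biotinylated, detergent-solubilized Sf9 membrane reagent. Streptavidin microbeads enriched the stained cells before FACS sorting into low and high (top ~1%) gates on anti-HA and streptavidin fluorescence. Each clone's polyreactivity label reflects its gate of origin.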

Sequence | polyreactivity (PSR sort gate)
QVQLVESGGGLVQAGGSLRLSCAASGSTFGFYAMGWYRQAPGKERELVAAISRGGSTNYADSVKGRFTISRDNAKNTVYLQMNSLKPEDTAVYYCAKAYHATSDYWGQGTQVTVSS | low polyreactivity
QVQLVESGGGLVQAGGSLRLSCAASGSTFGFYAMGWYRQAPGKERELVAAISSAARTYYADSVKGRFTISRDNAKNTVYLQMNSLKPEDTAVYYCSAEAYHWTSYIGYGGVYYWGQGTQVTVSS | low polyreactivity
QVQLVESGGGLVQAGGSLRLSCAASGSTFGFYTMGWYRQAPGKERELVAAISRGGGRTYYADSVKGRFTISRDNAKNTVYLQMNSLKPEDTAVYYCAARSTQGRFEYWGQGTQVTVSS | high polyreactivity
QVQLVESGGGLVQAGGSLRLSCAASGSTFGGNAMGWYRQAPGKERELVAAIDSGGSTYADSVKGRFTISRDNAKNTVYFQMNSLKPEDTAVYYCAAVWEFVHYWRFDYWGQGTQVTVSS | low polyreactivity
QVQLVESGGGLVQAGGSLRLSCAASGSTFGGNAMGWYRQAPGKERELVAAITIGGRTNYADSVKGRFTISRDYAKNTVYLQMNSLKPEDTAVYYCAKDRDQWQDYWGQGTQVTVSS | low polyreactivity
QVQLVESGGGLVQAGGSLRLSCAASGSTFGGNAMGWYRQAPGKERELVASISSSGGRTYYADSVKGRFTISRDNAKNTVYLQMNSLKPEDTAVYYCAAKAWYPRVGFLRGGYWGQGTQVTVSS | high polyreactivity
QVQLVESGGGLVQAGGSLRLSCAASGSTFGGYAMGWYRPAPGKERELVAAISGGGRTYYADSVKGRFTISRDNAKNTVYLQMNSLKPADTAVYYCNAGYWFGYRLFTGYYWGQGTQVTVSS | low polyreactivity
QVQLVESGGGLVQAGGSLRLSCAASGSTFGGYAMGWYRQAPGKERELVAAISSSGGITYYADSVKGRFTISRDNAKNTVYLQMNSLKPEDTAVYYCAAPLGGGARWGRWWLYDSWGQGTQVTVSS | low polyreactivity
QVQLVESGGGLVQAGGSLRLSCAASGSTFGGYAMGWYRQAPGKERELVAAITSRGGSTYYADSVKGRFTISRDNAKNTVYLQMNSLKPEDTAVYYCATGLPKRDRRARIRYEYWGQGTQVTVSS | low polyreactivity
QVQLVESGGGLVQAGGSLRLSCAASGSTFGGYSMGWYRQAPGKERELVAAITYSGGSTYYADSVKGRFTISGDIAQNTVYLQMKSLKPEDTAFYYCNADDDDALPWWWPYVLDVDYWGQGTQVTVSS | low polyreactivity
QVQLVESGGGLVQAGGSLRLSCAASGSTFGGYVMGWYRQAPGKERELVAAISGNGASTTYADSVKGRFTISRDNAKSTFYLQLNSVKPEDTAVYYCGAMYRKAHSDYDYWGQGTQVTVSS | low polyreactivity
QVQLVESGGGLVQAGGSLRLSCAASGSTFGHNVMGWYRQSPGKERELVAAISTSGGRTYYADSVKGRFTISRDNAKNTVYLQMNSLKPEDTAVYYCAARVYSTSVVAYYYWGQGTQVTVSS | high polyreactivity
QVQLVESGGGLVQAGGSLRLSCAASGSTFGINAMGGYRPAPGKERELVAAITASGGRTYYADSVKGRFTISRDNAKNTVYLQMNSLKPEDTAVYYCAAGFYPYYYWGQGTQVTVSS | low polyreactivity
QVQLVESGGGLVQAGGSLRLSCAASGSTFGINAMGWYRQAPGKERELVASITRRGGSTYYADSVKGRFTISRDNAKNTVYLQMNSLKTEDTAVYYFNKTYRYGTPLYDYWGQGTQVTVSS | high polyreactivity
QVQLVESGGGLVQAGGSLRLSCAASGSTFGINAMGWYRQSPGKERELVAAISSRGGRTYYADSVKGRFTISRDNAKNTVYLQMNSLKPEDTAVYYCNAVYGRVKGRGVGFKPQYDSWGQGTQVTVSS | high polyreactivity
QVQLVESGGGLVQAGGSLRLSCAASGSTFGIYDMGWYRQAPGKERELVAAITSGGDTNYADSVKGRFTISRDNAKNTVYFQKNSLKPEDTAVYYCNARDGGQGNYSARYDYWGQGTQVTVSS | low polyreactivity

Sequence | polyreactivity (PSR sort gate)
QVQLVESGGGLVQAGGSLRLSCAASGSTFGKNAMGWYRQAPGKERELVAAISTSGTRTFFADSVKGRFTISRDNAKNTVYLQMNSLKPEDTAFYYWNAGRSSRAYYYWGQGTQVTVSS | high polyreactivity
QVQLVESGGGLVQAGGSLRLSCAASGSTFGKNAMGWYRQAPGKERELVAAITRGSGSTYYADSVKGRFTISRDNAKNTVYLQMNSLKPEDTAVYYCAARRYRLSTPEFNYWGQGTQVTVSS | high polyreactivity
QVQLVESGGGLVQAGGSLRLSCAASGSTFGKYAMGWYRQAPGKEREFVAGISWSADSTYYADSVKGRFTISRDNAKNTVYLQMNSLKPEDTAFYYCATDGSSDEFRPEYDYWGQGTQVTVSS | low polyreactivity
QVQLVESGGGLVQAGGSLRLSCAASGSTFGKYVMGWYRQAPGKERELVAAISRSGGSTYYADYVKGRFTISRDNAMNTVYLQMNSLKPEDTAVYYCNAVVYFVGDFDYWGQGTQVSVSS | high polyreactivity
QVQLVESGGGLVQAGGSLRLSCAASGSTFGLYAMGWYRQAPGKERELVAAISGGSGRTYYADSVKGRFTISRDNAKNTVYLQMNSLKPEDTAVYYCAAVPVYRHEYDYWGQGTQVTVSS | low polyreactivity
QVQLVESGGGLVQAGGSLRLSCAASGSTFGLYAMGWYRQAPGKERELVAAISSRGSRTYYADSVKGRFTISRDNAKNTVYLQMNSLKPEDTAVYYCNALYASSVRHKVTYDYWGQGTQVTVSS | high polyreactivity
QVQLVESGGGLVQAGGSLRLSCAASGSTFGLYAMGWYRQAPGKERELVADITWSGGSTYYADSVKGRFTISRDNAKNTVYLQMNSMKPEDTAVYYCAARYAWVYYDFDYCGQGTQVTVSS | low polyreactivity
QVQLVESGGGLVQAGGSLRLSCAASGSTFGLYAMGWYRQAPVKEREFVAAISWRTGSTYYADSVKGRFTISRDTAKNTVYLQMNSLKPEDTAVYYCNAPYFYSRYSPDDYWGQGTQVTVSS | high polyreactivity
QVQLVESGGGLVQAGGSLRLSCAASGSTFGMNAMGWYRQAPGKERELVAAIDSSGGTTYYADSVKGRFTISRDHAKNTVYLQMNSRKPEDTAVYYCAADDNYYTFGYWGQGSQVTVSS | high polyreactivity
QVQLVESGGGLVQAGGSLRLSCAASGSTFGNAMGWYSQAPGKERELVAAISGSGSDTYYADSVKGRFTISRDNAKNPVYLQMNSLKPEDTAVYSWATETHRLDKGTDYGYDYWGQGTQVTVSS | low polyreactivity
QVQLVESGGGLVQAGGSLRLSCAASGSTFGPNAMGWYRKAPGKERELVAALSKRGGRTDYADSVKGRFTISRDNAKNTVYLQMNSLKPEDTAVYYCNARDGSYYQGDYWGQGNQVTVSS | high polyreactivity
QVQLVESGGGLVQAGGSLRLSCAASGSTFGPNAMGWYRQAPGKERELVAAIRSNGGRTYYADSVKGRFTISRDNAKNTVYLQMNSLKPEDTAVYYCAAPHYPYDTPYGYWGQGTQVTVSS | low polyreactivity
QVQLVESGGGLVQAGGSLRLSCAASGSTFGPNAMGWYRQAPGKERELVAAIRSQGGRTYYAYSVKGRFTISRDNAKNSVYLQMNSLIPEDTAVYYCGDPHYPYDTPYGYWGQGTQVTVSS | low polyreactivity
QVQLVESGGGLVQAGGSLRLSCAASGSTFGPNTMGWYRQAPRKERELVAAITSTGSTYYADSVKGRFTISRDNAKNTVYLQMNSLKPEDTAVYYCAARRYYGVYYAFYYWGQGTQVTVSS | high polyreactivity
QVQLVESGGGLVQAGGSLRLSCAASGSTFGPYAMGWYRQAPGKERELVAAITLSGGSTYYADSVKGRFTISRDYAKNTVYLQLNRLKPEYTAVYYCAAEYDRVDEDDYWGQGTQVTVSS | high polyreactivity
QVQLVESGGGLVQAGGSLRLSCAASGSTFGPYAMGWYRQAPGKEREMVAAISKTGGRTYYADSVKGRFTISRDNAKNTVYLQMHSLKPEDTAVYYCAADVGTAQSTYGYWGQGTQVTVSS | high polyreactivity
